Target: hTIGIT on the surface of T cells of B-hPD-1/hTIGIT double humanized mice (human extracellular region in the mouse genome (C57BL/6)) (UniProt Q495A1)
Assay: flow cytometry on spleen cells of a B-hPD-1/hTIGIT mouse, secondary anti-human Fc FITC; Q3 (TCRβ positive, stain negative) 30.3%

Chain of hTIGIT on the surface of T cells of B-hPD-1/hTIGIT double humanized mice (human extracellular region in the mouse genome (C57BL/6)) (Q495A1 22-141 limits assumed): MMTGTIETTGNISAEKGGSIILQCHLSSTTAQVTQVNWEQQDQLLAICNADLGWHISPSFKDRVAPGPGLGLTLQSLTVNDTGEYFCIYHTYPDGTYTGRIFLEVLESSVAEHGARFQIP

IgG1 isotype control (antibody)
% of events in quadrant Q2 (mouse TCRβ positive and human IgG positive): 2.61%

From patent publication US20220348650A1
